Source: IntAct's records for PubMed 24583011

What was measured:
sv2c_rat Sv2c [1] = biological target: T1, sv2c_rat Sv2c (UniProt Q9Z2I6)
T1 sequence: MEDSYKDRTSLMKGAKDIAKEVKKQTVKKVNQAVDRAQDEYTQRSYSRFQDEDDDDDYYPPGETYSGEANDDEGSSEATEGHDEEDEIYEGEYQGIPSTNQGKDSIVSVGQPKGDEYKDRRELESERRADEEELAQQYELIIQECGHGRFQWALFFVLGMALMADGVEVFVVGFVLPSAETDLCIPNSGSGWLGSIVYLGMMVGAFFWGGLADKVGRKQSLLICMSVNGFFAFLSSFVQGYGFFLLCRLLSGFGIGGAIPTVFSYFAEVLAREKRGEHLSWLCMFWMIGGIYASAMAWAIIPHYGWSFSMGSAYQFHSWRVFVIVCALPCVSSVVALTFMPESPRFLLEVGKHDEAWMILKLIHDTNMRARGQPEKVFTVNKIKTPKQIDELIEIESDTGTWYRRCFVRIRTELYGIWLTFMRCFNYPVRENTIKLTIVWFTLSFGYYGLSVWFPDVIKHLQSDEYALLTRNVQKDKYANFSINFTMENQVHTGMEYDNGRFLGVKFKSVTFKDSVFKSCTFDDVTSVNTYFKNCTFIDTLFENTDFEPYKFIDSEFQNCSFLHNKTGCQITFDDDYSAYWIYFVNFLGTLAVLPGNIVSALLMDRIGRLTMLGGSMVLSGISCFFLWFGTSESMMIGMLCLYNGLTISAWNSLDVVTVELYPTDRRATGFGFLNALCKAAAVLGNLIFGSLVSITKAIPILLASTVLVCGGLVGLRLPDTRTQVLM

sv2c_rat Sv2c [2] = biological target: T1, sv2c_rat Sv2c; remark: listed apart in the source
sv2c_rat Sv2c [3] = biological target: T1, sv2c_rat Sv2c; remark: listed apart in the source
sv2c_rat Sv2c [4] = biological target: T1, sv2c_rat Sv2c; remark: listed apart in the source
sv2c_rat Sv2c [5] = biological target: T1, sv2c_rat Sv2c; remark: listed apart in the source
sv2c_rat Sv2c [6] = biological target: T1, sv2c_rat Sv2c; remark: listed apart in the source
sv2c_rat Sv2c [7] = biological target: T1, sv2c_rat Sv2c; remark: listed apart in the source
sv2c_rat Sv2c [8] = biological target: T1, sv2c_rat Sv2c; remark: listed apart in the source
sv2c_rat Sv2c [9] = biological target: T1, sv2c_rat Sv2c; remark: listed apart in the source
sv2c_rat Sv2c [10] = biological target: T1, sv2c_rat Sv2c; remark: listed apart in the source

Botulinum neurotoxin type A (Clostridium botulinum) (from UniProt P0DPI0) R1131E
effect of a mutation on the interaction (sv2c_rat Sv2c [1]): decreasing interaction

Botulinum neurotoxin type A (Clostridium botulinum) (from UniProt P0DPI0) T1063P
effect of a mutation on the interaction (sv2c_rat Sv2c [2]): decreasing interaction

Botulinum neurotoxin type A (Clostridium botulinum) (from UniProt P0DPI0) N905Y
effect of a mutation on the interaction (sv2c_rat Sv2c [3]): decreasing interaction

Botulinum neurotoxin type A (Clostridium botulinum) (from UniProt P0DPI0) G1292R
effect of a mutation on the interaction (sv2c_rat Sv2c [4]): decreasing interaction

Botulinum neurotoxin type A (Clostridium botulinum) (from UniProt P0DPI0) N1188A
effect of a mutation on the interaction (sv2c_rat Sv2c [5]): decreasing interaction

Botulinum neurotoxin type A (Clostridium botulinum) (from UniProt P0DPI0) V1287E
effect of a mutation on the interaction (sv2c_rat Sv2c [6]): decreasing interaction

Botulinum neurotoxin type A (Clostridium botulinum) (from UniProt P0DPI0) K1163E
effect of a mutation on the interaction (sv2c_rat Sv2c [7]): decreasing interaction

Botulinum neurotoxin type A (Clostridium botulinum) (from UniProt P0DPI0) D1108R
effect of a mutation on the interaction (sv2c_rat Sv2c [8]): decreasing interaction

Botulinum neurotoxin type A (Clostridium botulinum) (from UniProt P0DPI0) H1064G
effect of a mutation on the interaction (sv2c_rat Sv2c [9]): decreasing interaction

Botulinum neurotoxin type A (Clostridium botulinum) (from UniProt P0DPI0) R1156M
effect of a mutation on the interaction (sv2c_rat Sv2c [10]): decreasing interaction
